T1: GDF-11 (UniProt O95390 299-407)
T1 construct: also called Growth and Differentiation Factor-11; BMP11
T1 sequence (looked up): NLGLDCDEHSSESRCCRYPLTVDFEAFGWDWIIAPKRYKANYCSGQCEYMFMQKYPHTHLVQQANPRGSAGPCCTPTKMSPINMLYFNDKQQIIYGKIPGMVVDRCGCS

T2: Activin A (UniProt P08476 311-426)
T2 construct: also called ActA
T2 sequence (looked up): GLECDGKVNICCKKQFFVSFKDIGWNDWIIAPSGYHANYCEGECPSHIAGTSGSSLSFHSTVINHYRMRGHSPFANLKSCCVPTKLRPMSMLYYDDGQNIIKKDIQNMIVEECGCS


Key:
GDF-11 [1] = molecular target: T1, GDF-11; test: BiaCore (SPR); ligand amine-coupled to CM5 chip, ActRIIB-Fc injected
Procedure: (§1) GDF-11 or Activin A (“ActA”) were immobilized on a BiaCore CM5 chip using standard amine coupling procedure. The ActRIIB-Fc mutant or wild-type protein was loaded onto the system, and binding was measured.

Activin A [2] = molecular target: T2, Activin A; test: as above
Procedure: as §1

Activin A [3] = molecular target: T2, Activin A; test: BiaCore, ligand immobilized on CM5 chip
Procedure: as §1

GDF-11 [4] = molecular target: T1, GDF-11; test: BiaCore, ligand immobilized on CM5 chip
Procedure: as §1

Row | Kd (GDF-11 [1]) [nM] | Kd (Activin A [2]) [nM] | binding result (Activin A [3]) | binding result (GDF-11 [1]) | binding result (Activin A [2]) | Binder | also measured
1 | 260 | 180 | – | – | – | background ActRIIB-Fc fusion, WT (64A) (Fc fusion, Made in HEK293T or CHO cells and purified on protein A; also called wild-type (background A64) ActRIIB-Fc; background A64 construct) SGRGEAETRECIYYNANWELERTNQSGLERCEGEQDKRLHCYASWANSSGTIELVKKGCWLDDFNCYDRQECVATEENPQVYFCCCEGNFCNERFTHLPEAGGGTHTCPPCPAPELLGGPSVFLFPPKPKDTLMISRTPEVTCVVVDVSHEDPEVKFNWYVDGVEVHNAKTKPREEQYNSTYRVVSVLTVLHQDWLNGKEYKCKVSNKALPVPIEKTISKAKGQPREPQVYTLPPSREEMTKNQVSLTCLVKGFYPSDIAVEWESNGQPENNYKTTPPVLDSDGSFFLYSKLTVDKSRWQQGNVFSCSVMHEALHNHYTQKSLSLSPGK | –
2 | – | – | no binding | binds | – | ActRIIB-Fc K74Y (Fc fusion, Mutation in the background ActRIIB-Fc) SGRGEAETRECIYYNANWELERTNQSGLERCEGEQDKRLHCYASWANSSGTIELVYKGCWLDDFNCYDRQECVATEENPQVYFCCCEGNFCNERFTHLPEAGGGTHTCPPCPAPELLGGPSVFLFPPKPKDTLMISRTPEVTCVVVDVSHEDPEVKFNWYVDGVEVHNAKTKPREEQYNSTYRVVSVLTVLHQDWLNGKEYKCKVSNKALPVPIEKTISKAKGQPREPQVYTLPPSREEMTKNQVSLTCLVKGFYPSDIAVEWESNGQPENNYKTTPPVLDSDGSFFLYSKLTVDKSRWQQGNVFSCSVMHEALHNHYTQKSLSLSPGK | –
3 | 5.3 | 4.35 | – | – | – | ActRIIB-Fc K74A (Fc fusion, Mutation in the background ActRIIB-Fc) SGRGEAETRECIYYNANWELERTNQSGLERCEGEQDKRLHCYASWANSSGTIELVAKGCWLDDFNCYDRQECVATEENPQVYFCCCEGNFCNERFTHLPEAGGGTHTCPPCPAPELLGGPSVFLFPPKPKDTLMISRTPEVTCVVVDVSHEDPEVKFNWYVDGVEVHNAKTKPREEQYNSTYRVVSVLTVLHQDWLNGKEYKCKVSNKALPVPIEKTISKAKGQPREPQVYTLPPSREEMTKNQVSLTCLVKGFYPSDIAVEWESNGQPENNYKTTPPVLDSDGSFFLYSKLTVDKSRWQQGNVFSCSVMHEALHNHYTQKSLSLSPGK | –
4 | – | – | no binding | binds | – | ActRIIB-Fc K74F (Fc fusion, Mutation in the background ActRIIB-Fc) SGRGEAETRECIYYNANWELERTNQSGLERCEGEQDKRLHCYASWANSSGTIELVFKGCWLDDFNCYDRQECVATEENPQVYFCCCEGNFCNERFTHLPEAGGGTHTCPPCPAPELLGGPSVFLFPPKPKDTLMISRTPEVTCVVVDVSHEDPEVKFNWYVDGVEVHNAKTKPREEQYNSTYRVVSVLTVLHQDWLNGKEYKCKVSNKALPVPIEKTISKAKGQPREPQVYTLPPSREEMTKNQVSLTCLVKGFYPSDIAVEWESNGQPENNYKTTPPVLDSDGSFFLYSKLTVDKSRWQQGNVFSCSVMHEALHNHYTQKSLSLSPGK | –
5 | – | – | – | – | binds | ActRIIB-Fc L79A (Fc fusion, Mutation in the background ActRIIB-Fc) SGRGEAETRECIYYNANWELERTNQSGLERCEGEQDKRLHCYASWANSSGTIELVKKGCWADDFNCYDRQECVATEENPQVYFCCCEGNFCNERFTHLPEAGGGTHTCPPCPAPELLGGPSVFLFPPKPKDTLMISRTPEVTCVVVDVSHEDPEVKFNWYVDGVEVHNAKTKPREEQYNSTYRVVSVLTVLHQDWLNGKEYKCKVSNKALPVPIEKTISKAKGQPREPQVYTLPPSREEMTKNQVSLTCLVKGFYPSDIAVEWESNGQPENNYKTTPPVLDSDGSFFLYSKLTVDKSRWQQGNVFSCSVMHEALHNHYTQKSLSLSPGK | binding result (GDF-11 [4]): no binding
6 | – | – | – | binds | binds | ActRIIB-Fc R40A (Fc fusion, Mutation in the background ActRIIB-Fc) SGRGEAETRECIYYNANWELEATNQSGLERCEGEQDKRLHCYASWANSSGTIELVKKGCWLDDFNCYDRQECVATEENPQVYFCCCEGNFCNERFTHLPEAGGGTHTCPPCPAPELLGGPSVFLFPPKPKDTLMISRTPEVTCVVVDVSHEDPEVKFNWYVDGVEVHNAKTKPREEQYNSTYRVVSVLTVLHQDWLNGKEYKCKVSNKALPVPIEKTISKAKGQPREPQVYTLPPSREEMTKNQVSLTCLVKGFYPSDIAVEWESNGQPENNYKTTPPVLDSDGSFFLYSKLTVDKSRWQQGNVFSCSVMHEALHNHYTQKSLSLSPGK | –
7 | – | – | – | – | binds | ActRIIB-Fc D54A (Fc fusion, Mutation in the background ActRIIB-Fc) SGRGEAETRECIYYNANWELERTNQSGLERCEGEQAKRLHCYASWANSSGTIELVKKGCWLDDFNCYDRQECVATEENPQVYFCCCEGNFCNERFTHLPEAGGGTHTCPPCPAPELLGGPSVFLFPPKPKDTLMISRTPEVTCVVVDVSHEDPEVKFNWYVDGVEVHNAKTKPREEQYNSTYRVVSVLTVLHQDWLNGKEYKCKVSNKALPVPIEKTISKAKGQPREPQVYTLPPSREEMTKNQVSLTCLVKGFYPSDIAVEWESNGQPENNYKTTPPVLDSDGSFFLYSKLTVDKSRWQQGNVFSCSVMHEALHNHYTQKSLSLSPGK | binding result (GDF-11 [4]): no binding
8 | – | – | no binding | binds | – | ActRIIB-Fc K74I (Fc fusion, Mutation in the background ActRIIB-Fc) SGRGEAETRECIYYNANWELERTNQSGLERCEGEQDKRLHCYASWANSSGTIELVIKGCWLDDFNCYDRQECVATEENPQVYFCCCEGNFCNERFTHLPEAGGGTHTCPPCPAPELLGGPSVFLFPPKPKDTLMISRTPEVTCVVVDVSHEDPEVKFNWYVDGVEVHNAKTKPREEQYNSTYRVVSVLTVLHQDWLNGKEYKCKVSNKALPVPIEKTISKAKGQPREPQVYTLPPSREEMTKNQVSLTCLVKGFYPSDIAVEWESNGQPENNYKTTPPVLDSDGSFFLYSKLTVDKSRWQQGNVFSCSVMHEALHNHYTQKSLSLSPGK | –
9 | 19 | ~26 | – | – | – | ActRIIB-Fc +15tail (Fc fusion, also called ActRIIB-Fc with the C-terminal 15 amino acids of the extracellular domain) SGRGEAETRECIYYNANWELERTNQSGLERCEGEQDKRLHCYASWANSSGTIELVKKGCWLDDFNCYDRQECVATEENPQVYFCCCEGNFCNERFTHLPEAGGPEVTYEPPPTAPTGGGTHTCPPCPAPELLGGPSVFLFPPKPKDTLMISRTPEVTCVVVDVSHEDPEVKFNWYVDGVEVHNAKTKPREEQYNSTYRVVSVLTVLHQDWLNGKEYKCKVSNKALPVPIEKTISKAKGQPREPQVYTLPPSREEMTKNQVSLTCLVKGFYPSDIAVEWESNGQPENNYKTTPPVLDSDGSFFLYSKLTVDKSRWQQGNVFSCSVMHEALHNHYTQKSLSLSPGK | –

— patent US20060068468A1 (ACCELERON PHARMA, published 2006)
